# Source: patent US6576610B1, “Use of a context-dependent functional entity to enhance the efficacy of an agent” (Nuvas, LLC, priority 1999, dated 2003)
# Entries after “also recorded” stand apart in the source; their conditions may differ.
# T1: Kringle 5 of plasminogen (Homo sapiens, UniProt P00747)
# T1 sequence (P00747 481-560 limits assumed): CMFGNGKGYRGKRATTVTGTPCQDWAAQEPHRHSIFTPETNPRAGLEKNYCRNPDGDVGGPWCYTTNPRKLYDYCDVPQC
# T2: blood coagulation factor VIIa (UniProt P08709 61-466)
# T2 sequence (looked up): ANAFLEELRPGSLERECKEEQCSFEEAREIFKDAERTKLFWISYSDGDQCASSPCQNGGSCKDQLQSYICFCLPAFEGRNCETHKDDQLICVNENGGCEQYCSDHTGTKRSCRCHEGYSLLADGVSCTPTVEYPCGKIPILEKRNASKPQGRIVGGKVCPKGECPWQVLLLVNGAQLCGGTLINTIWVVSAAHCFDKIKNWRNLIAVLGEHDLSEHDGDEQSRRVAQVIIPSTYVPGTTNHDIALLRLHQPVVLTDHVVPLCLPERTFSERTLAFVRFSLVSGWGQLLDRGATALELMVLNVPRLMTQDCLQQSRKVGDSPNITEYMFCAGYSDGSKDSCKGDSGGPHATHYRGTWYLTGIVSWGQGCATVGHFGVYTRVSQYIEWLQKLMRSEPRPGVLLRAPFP
# T3: factor VIIa (Homo sapiens, UniProt P08709)
# T3 sequence (P08709 61-212 limits assumed): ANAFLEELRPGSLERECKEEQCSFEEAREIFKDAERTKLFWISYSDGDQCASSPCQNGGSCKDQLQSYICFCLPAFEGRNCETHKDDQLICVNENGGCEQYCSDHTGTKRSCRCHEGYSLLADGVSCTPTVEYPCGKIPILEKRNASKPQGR
# T3 sequence (P08709 213-466 limits assumed): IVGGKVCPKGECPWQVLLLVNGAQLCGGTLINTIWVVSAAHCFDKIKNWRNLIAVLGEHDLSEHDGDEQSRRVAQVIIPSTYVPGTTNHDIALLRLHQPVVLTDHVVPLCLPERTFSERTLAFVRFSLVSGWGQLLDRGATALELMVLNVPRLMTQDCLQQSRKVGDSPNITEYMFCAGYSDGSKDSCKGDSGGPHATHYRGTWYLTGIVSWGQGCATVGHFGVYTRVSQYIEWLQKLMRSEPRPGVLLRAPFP
# B1: TF 1-218 (receptor, human, UniProt P13726 33-250, looked up)
# chain: SGTTNTVAAYNLTWKSTNFKTILEWEPKPVNQVYTVQISTKSGDWKSKCFYTTDTECDLTDEIVKDVKQTYLARVFSYPAGNVESTGSAGEPLYENSPEFTPYLETNLGQPTIQSFEQVGTKVNVTVEDERTLVRRNNTFLSLRDVFGKDLIYTLYYWKSSSSGKKTAKTNTNEFLIDVDKGENYCFSVQAVIPSRTVNRKSTDSPVECMGQEKGEFR
# notes: range 1-218; also called isolated truncated TF (tTF) domain alone; tTF
# B2: NV144 (other, human)
# chain: PRKLYDGGGGSGGGGSGGGGSTTNTVAAYNLTWKSTNFKTILEWEPKPVNQVYTVQISTKSGDWKSKCFYTTDTECDLTDEIVKDVKQTYLARVFSYPAGNVESTGSAGEPLYENSPEFTPYLETNLGQPTIQSFEQVGTKVNVTVEDERTLVRRNNTFLSLRDVFGKDLIYTLYYWKSSSSGKKTAKTNTNEFLIDVDKGENYCFSVQAVIPSRTVNRKSTDSPVECMG
# notes: range 3-211; also called CDFE; context-dependent functional entity
# B3: NV144: CDFE fusion polypeptide: truncated human TF domain, (Gly4Ser)3 spacer, plasminogen kringle 5 peptide Pro-Arg-Lys-Leu-Tyr-Asp (protein)
# chain: PRKLYDGGGGSGGGGSGGGGSTTNTVAAYNLTWKSTNFKTILEWEPKPVNQVYTVQISTKSGDWKSKCFYTTDTECDLTDEIVKDVKQTYLARVFSYPAGNVESTGSAGEPLYENSPEFTPYLETNLGQPTIQSFEQVGTKVNVTVEDERTLVRRNNTFLSLRDVFGKDLIYTLYYWKSSSSGKKTAKTNTNEFLIDVDKGENYCFSVQAVIPSRTVNRKSTDSPVECMG
# Experiments:
# TF 1-218 = TF 1-218 (UniProt P13726)
# NV144 = NV144 (UniProt P13726)
# Kringle 5 of plasminogen = target: T1, Kringle 5 of plasminogen; details: Chang et al. 1998; read-out: binding to kringle 5 of plasminogen; cited from earlier work
# factors IX and X = details: Rao et al. 1988; cited from earlier work
# [1] = target: T2, blood coagulation factor VIIa; assay: surface plasmon resonance, Biacore 2000
# [2] = target: T2, blood coagulation factor VIIa; assay: titration of the amidolytic activity of factor VIIa against protein concentration
# factor X = assay: Linked functional assay: factor Xa generation by protein:VIIa complex incubated with factor X; assay type: biochemical; details: for Relative Proteolytic Activity: factor Xa generation, TF 1-218 = 1.00
# [3] = system: MAT B III breast carcinoma tumors; assay: Syngeneic MAT B III rat breast carcinoma model; assay type: in vivo, Fisher 344 rats; details: NV144 alone
# Source text: The MAT B III rat breast carcinoma is very malignant and fast-growing and, unlike many animal tumors, metastasizes. In addition, the tumor-bearing host lives sufficiently long to develop metastatic disease from the primary tumor. As such, the MAT-BIII tumor model has similar characteristics to human tumors.
# Fisher 344 rats bearing MAT B III breast carcinoma tumors were used for these studies. Experiments were begun when the tumors reached approximately 170-200 mm3 in size (5-9 days; “day 0”). Tumors in saline treated controls grew very rapidly and reach a size of about 35,000 mm^3 at day 7. In the treatment groups, tumor-bearing rats were treated with NV144 or DOXIL (Sequus Pharmaceuticals, Inc.), either alone or in combination. In the clinic, DOXIL generally is administered at about 4 mg/kg.
# At the highest dose of DOXIL (9 mg/kg), survival initially appeared to be similar in both groups of rats; however, none of the animals survived beyond day 23 due to the high dose of DOXIL.
# [4] = system: C1300 neuroblastoma tumor spheroid; assay: Intravital microscopy of tumor vessels in skinfold chamber; assay type: in vivo, A/J mouse; details: infused over 30 min
# factor VIIa = target: T3, factor VIIa; assay: Surface plasmon resonance (Biacore 2000) binding to factor VIIa; details: by surface plasmon resonance and amidolytic titration
molecule,measurement,setting,value
blood coagulation factor X,Relative Proteolytic Activity,TF 1-218,1
same,Relative Proteolytic Activity,NV144,0.86
NCCCCC(=O)O [5-aminopentanoic acid],Kd,Kringle 5 of plasminogen,580 µM
"TF: integral transmembrane protein receptor tissue factor, trigger of the coagulation cascade",enhancement of enzymatic activation of substrate factors IX and X on binding of factor VIIa,factors IX and X,"≤ 5,000 fold"
NCCCCCCC(=O)O [7-aminoheptanoic acid],Kd,Kringle 5 of plasminogen,367 µM
B1,Kd,[1],3.26 nM
same,Kd,[2],4.73 nM
same,Relative Proteolytic Activity,factor X,1.00
B2,Kd,[1],3.22 nM
same,Kd,[2],4.32 nM
B3,anti-tumor activity when administered alone,[3],little or no effect; also recorded: no significant anti-tumor activity
same,effects on nearby vessels in skin and nearby angiogenic vessels,[4],No similar effects
same,rate of blood flow in the tumor,[4],general slowing
same,vascular permeability of tumor vessels,[4]; plasma leakage into extravascular space and hemorrhage,significant and selective changes
same,affinity for factor VIIa compared with isolated truncated TF (tTF) domain alone,factor VIIa,comparable
same,rate of fluid phase factor Xa generation as compared to tTF,factor X,normal rate
same,Relative Proteolytic Activity,factor X,0.86
